In patent publication US20120034160A1 (AbbVie / Abbott, published 2012):
“And” between values parts separate entries of the source, which are not always exact repeats. Equal values may be shown once.

Legend:
Recombinant Human IL-1β [1] = target: T1, Recombinant Human IL-1β (human, UniProt P01584 117-269); experiment: cell-based or functional assay
Recombinant Human IL-1β [2] = target: T1, Recombinant Human IL-1β; experiment: Biacore SPR; C-terminal VD
Outline: (§1)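 First, goat anti-mouse IgG was immobilized on a CM5 chip by amine coupling. Next, test antibody or DVD-Ig (25 μg/ml) was captured. Then antigen at 10−200 nM flowed over at 25 μl/min, 25° C. Finally, association and dissociation phases were globally fitted to a 1:1 model.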

Recombinant Human IL-17 [3] = target: T2, Recombinant Human IL-17 (human, UniProt Q16552 20-155, limits assumed); experiment: Biacore SPR; N-terminal VD
T2 construct: Bought reagent
T2 sequence (looked up): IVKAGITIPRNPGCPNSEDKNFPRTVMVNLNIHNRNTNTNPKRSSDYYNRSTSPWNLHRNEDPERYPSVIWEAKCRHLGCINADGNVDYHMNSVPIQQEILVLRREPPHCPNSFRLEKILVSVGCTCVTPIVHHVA
Outline: as §1

Recombinant Human IL-17 [4] = target: T2, Recombinant Human IL-17; experiment: cell-based or functional assay
Recombinant Human IL-17 [5] = target: T2, Recombinant Human IL-17; experiment: Biacore SPR
Experimental: (§2) The BIACORE assay (Biacore, Inc, Piscataway, N.J.) determines the affinity of antibodies or DVD-Ig with kinetic measurements of on-rate and off-rate constants. Binding of antibodies or DVD-Ig to a target antigen (for example, a purified recombinant target antigen) was determined by surface plasmon resonance-based measurements with a Biacore® 1000 or 3000 instrument (Biacore® AB, Uppsala, Sweden) using running HBS-EP (10 mM HEPES [pH 7.4], 150 mM NaCl, 3 mM EDTA, and 0.005% surfactant P20) at 25° C. All chemicals were obtained from Biacore® AB (Uppsala, Sweden) or otherwise from a different source as described in the text. For example, approximately 5000 RU of goat anti-mouse IgG, (Fcγ), fragment specific polyclonal antibody (Pierce Biotechnology Inc, Rockford, Ill.) diluted in 10 mM sodium acetate (pH 4.5) was directly immobilized across a CM5 research grade biosensor chip using a standard amine coupling kit according to manufacturer's instructions and procedures at 25 μg/ml. Unreacted moieties on the biosensor surface were blocked with ethanolamine. Modified carboxymethyl dextran surface in flowcell 2 and 4 was used as a reaction surface. Unmodified carboxymethyl dextran without goat anti-mouse IgG in flow cell 1 and 3 was used as the reference surface. For kinetic analysis, rate equations derived from the 1:1 Langmuir binding model were fitted simultaneously to association and dissociation phases of all eight injections (using global fit analysis) with the use of Biaevaluation 4.0.1 software. Purified antibodies or DVD-Ig were diluted in HEPES-buffered saline for capture across goat anti-mouse IgG specific reaction surfaces. Antibodies or DVD-Ig to be captured as a ligand (25 μg/ml) were injected over reaction matrices at a flow rate of 5 μl/min. The association and dissociation rate constants, kₒₙ (M⁻¹s⁻¹) and koff (s⁻¹) were determined under a continuous flow rate of 25 μl/min. Rate constants were derived by making kinetic binding measurements at different antigen concentrations ranging from 10−200 nM. The equilibrium dissociation constant (M) of the reaction between antibodies or DVD-Igs and the target antigen was then calculated from the kinetic rate constants by the following formula: KD=koff/kₒₙ. Binding was recorded as a function of time and kinetic rate constants are calculated.

Recombinant Human IL-17 [6] = target: T3, Recombinant Human IL-17 (human, UniProt Q16552 20-155, limits assumed); experiment: Biacore SPR
T3 construct: bought reagent
T3 sequence (looked up): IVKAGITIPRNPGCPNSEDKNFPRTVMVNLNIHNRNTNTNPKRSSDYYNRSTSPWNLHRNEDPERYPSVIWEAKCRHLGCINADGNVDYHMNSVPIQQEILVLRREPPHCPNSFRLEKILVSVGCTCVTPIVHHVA
Experimental: as §2

Recombinant Human IL-1β [7] = target: T1, Recombinant Human IL-1β; experiment: Biacore SPR
Experimental: as §2

B1: DVD1640 (bispecific antibody, human IgG1, kappa)
heavy: not shown
light: EIVLTQSPDFQSVTPKEKVTITCRASQNIGSELHWYQQKPDQSPKLLIKYASHSISGVPSRFSGSGSGTDFTLTINGLEAEDAATYYCHQSDTLPHTFGQGTKVDIKRTVAAPDIQMTQSPSSLSASVGDRVTITCRASGNIHNYLTWYQQTPGKAPKLLIYNAKTLADGVPSRFSGSGSGTDYTFTISSLQPEDIATYYCQHFWSIPYTFGQGTKLQITRTVAAPSVFIFPPSDEQLKSGTASVVCLLNNFYPREAKVQWKVDNALQSGNSQESVTEQDSKDSTYSLSSTLTLSKADYEKHKVYACEVTHQGLSSPVTKSFNRGEC
notes: V1/V2 vectors: wild type hIgG1, kappa
C-Terminal VD IL-1β Neutralization Assay EC50 (Recombinant Human IL-1β [1]): 2.85 nM | Kd (Recombinant Human IL-1β [2]): 0.09 nM | koff (Recombinant Human IL-1β [2]): 1.2e-05 s⁻¹ | kon (Recombinant Human IL-1β [2]): 130000 M⁻¹ s⁻¹ | Kd (Recombinant Human IL-17 [3]): 0.017 nM | koff (Recombinant Human IL-17 [3]): 6.5e-05 s⁻¹ | kon (Recombinant Human IL-17 [3]): 3.8e+06 M⁻¹ s⁻¹ | N-terminal VD IL-17 Neutralization Assay EC50 (Recombinant Human IL-17 [4]): 0.0061 nM

B2: DVD1642 (bispecific antibody, human IgG1, kappa)
heavy: not shown
light: EIVLTQSPDFQSVTPKEKVTITCRASQNIGSELHWYQQKPDQSPKLLIKYASHSISGVPSRFSGSGSGTDFTLTINGLEAEDAATYYCHQSDTLPHTFGQGTKVDIKRTVAAPDIQMTQSPSSLSASVGDRVTITCRASGNIHNYLTWYQQTPGKAPKLLIYNAKTLADGVPSRFSGSGSGTDYTFTISSLQPEDIATYYCQHFWSIPYTFGQGTKLQITRTVAAPSVFIFPPSDEQLKSGTASVVCLLNNFYPREAKVQWKVDNALQSGNSQESVTEQDSKDSTYSLSSTLTLSKADYEKHKVYACEVTHQGLSSPVTKSFNRGEC
notes: as for B1
C-Terminal VD IL-1β Neutralization Assay EC50 (Recombinant Human IL-1β [1]): 0.628 nM | Kd (Recombinant Human IL-1β [2]): < 0.001 nM | koff (Recombinant Human IL-1β [2]): < 1e-06 s⁻¹ | kon (Recombinant Human IL-1β [2]): 960000 M⁻¹ s⁻¹ | Kd (Recombinant Human IL-17 [3]): 0.011 nM | koff (Recombinant Human IL-17 [3]): 4.1e-05 s⁻¹ | kon (Recombinant Human IL-17 [3]): 3.9e+06 M⁻¹ s⁻¹ | N-terminal VD IL-17 Neutralization Assay EC50 (Recombinant Human IL-17 [4]): 0.0043 nM

B3: DVD1646 (bispecific antibody, human IgG1, kappa)
heavy: not shown
light: EIVLTQSPDFQSVTPKEKVTITCRASQNIGSELHWYQQKPDQSPKLLIKYASHSISGVPSRFSGSGSGTDFTLTINGLEAEDAATYYCHQSDTLPHTFGQGTKVDIKRTVAAPDTVVTQSPAFLSVTPGEKVTITCITSTDIDVDMNWYQQKPDQPPKLLISQGNTLRPGVPSRFSSSGSGTDFTFTISSLEAEDAATYYCLQSDNLPLTFGQGTKLEIKRTVAAPSVFIFPPSDEQLKSGTASVVCLLNNFYPREAKVQWKVDNALQSGNSQESVTEQDSKDSTYSLSSTLTLSKADYEKHKVYACEVTHQGLSSPVTKSFNRGEC
notes: DVD-Ig: outer AB275, inner AB271; V1/V2 vectors: wild type hIgG1, kappa
C-Terminal VD IL-1β Neutralization Assay EC50 (Recombinant Human IL-1β [1]): 20.6 nM | Kd (Recombinant Human IL-1β [2]): 0.62 nM | koff (Recombinant Human IL-1β [2]): 0.00063 s⁻¹ | kon (Recombinant Human IL-1β [2]): 1e+06 M⁻¹ s⁻¹ | Kd (Recombinant Human IL-17 [3]): 0.012 nM | koff (Recombinant Human IL-17 [3]): 4.7e-05 s⁻¹ | kon (Recombinant Human IL-17 [3]): 3.9e+06 M⁻¹ s⁻¹ | N-terminal VD IL-17 Neutralization Assay EC50 (Recombinant Human IL-17 [4]): 0.0082 nM

B4: AB274 (antibody, human IgG1, kappa, V domains shown)
VH: EVQLVQSGAEVKKPGSSVKVSCKASGGSFGGYGIGWVRQAPGQGLEWMGGITPFFGFADYAQKFQGRVTITADESTTTAYMELSGLTSDDTAVYYCARDPNEFWNGYYSTHDFDSWGQGTTVTVSS
VL: EIVLTQSPDFQSVTPKEKVTITCRASQDIGSELHWYQQKPDQPPKLLIKYASHSTSGVPSRFSGSGSGTDFTLTINGLEAEDAGTYYCHQTDSLPYTFGPGTKVDIKR
notes: Parent antibody
Kd (Recombinant Human IL-17 [5]): 0.0068 nM | koff (Recombinant Human IL-17 [5]): 1.8e-05 s⁻¹ | kon (Recombinant Human IL-17 [5]): 2.7e+06 M⁻¹ s⁻¹ | IL-17 Neutralization Assay EC50 (Recombinant Human IL-17 [4]): 0.002 nM

B5: AB274 (antibody, human IgG1, kappa, V domains shown)
VH: EVQLVQSGAEVKKPGSSVKVSCKASGGSFGGYGIGWVRQAPGQGLEWMGGITPFFGFADYAQKFQGRVTITADESTTTAYMELSGLTSDDTAVYYCARDPNEFWNGYYSTHDFDSWGQGTTVTVSS
VL: EIVLTQSPDFQSVTPKEKVTITCRASQDIGSELHWYQQKPDQPPKLLIKYASHSTSGVPSRFSGSGSGTDFTLTINGLEAEDAGTYYCHQTDSLPYTFGPGTKVDIKR
notes: constants by vectors: V1 wt hIgG1, V2 kappa
koff (Recombinant Human IL-17 [6]): 2e-05 s⁻¹ and 2.1e-05 s⁻¹ and 1.8e-05 s⁻¹

B6: AB270 (antibody, human IgG1, kappa, V domains shown)
VH: EVQLQESGPGLVKPSETLSLTCTVSGFSLSDYGVSWIRQPPGKGLEWLGLIWGGGDTYYNSPLKSRLTISKDNSKSQVSLKLSSVTAADTAVYYCAKQRTLWGYDLYGMDYWGQGTLVTVSS
VL: DTQVTQSPSSLSASVGDRVTITCITSTDIDVDMNWYQQKPGKPPKLLISQGNTLRPGVPSRFSSSGSGTDFTFTISSLQPEDFATYYCLQSDNLPLTFGQGTKLEIKR
notes: Parent antibody
IL-1β Neutralization Assay EC50 (Recombinant Human IL-1β [1]): 0.245 nM | Kd (Recombinant Human IL-1β [7]): 0.08 nM | koff (Recombinant Human IL-1β [7]): 0.00053 s⁻¹ | kon (Recombinant Human IL-1β [7]): 6.6e+06 M⁻¹ s⁻¹
